T1: TNF-beta (human, UniProt P01374 35-205)
T1 construct: also called TNFβ; Tumour Necrosis Factor-beta
T1 sequence (looked up): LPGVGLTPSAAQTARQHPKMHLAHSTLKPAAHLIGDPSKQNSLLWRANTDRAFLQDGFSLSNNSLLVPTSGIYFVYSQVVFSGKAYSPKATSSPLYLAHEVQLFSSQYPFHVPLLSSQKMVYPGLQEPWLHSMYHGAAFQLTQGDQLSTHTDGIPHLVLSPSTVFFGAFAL

T2: Fas ligand (human, UniProt P48023 134-281, limits assumed)
T2 sequence (looked up): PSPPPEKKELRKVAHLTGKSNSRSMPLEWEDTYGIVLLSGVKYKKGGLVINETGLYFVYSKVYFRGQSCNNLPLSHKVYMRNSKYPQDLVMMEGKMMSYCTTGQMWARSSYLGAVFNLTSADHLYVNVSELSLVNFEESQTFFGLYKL


Key:
[1] = target: T3, biotinylated B Lymphocyte Stimulator, soluble form (human, UniProt Q9Y275 134-285, biotinylated with NHS-biotin, molar ratio 20:1 biotin:protein); test: phage scFv, receptor binding inhibition on IM9 cells
T3 construct: also called bio-B Lymphocyte Stimulator; free B Lymphocyte Stimulator
Procedure: Fifty-five μl of each appropriate phage supernatant was added to each well and the final volume in each well was 65 μl. Plates were then incubated at room temperature for 30 minutes.
Plates were washed three times in PBST and three times in PBS, tapped dry and 50 μl of streptavidin-Delfia (Wallac) was added to each well at 1:1000 dilution in the Manufacturer's assay buffer. The plates were then incubated at room temperature for 1 hour and washed six times in Delfia wash solution (Wallac). After tapping the plates dry, 100 μl per well of Delfia enhancement solution (Wallac) was added. The plates were gently tapped to encourage micelle formation, incubated at room temperature for 10 minutes, and fluorescence read on a Wallac 1420 workstation at […].

[2] = target: T4, membrane-bound B Lymphocyte Stimulator on U937 plasma membrane preparations (human, UniProt Q9Y275 1-285); test: phage ELISA
T4 construct: Natural protein in plasma membrane fractions of the human cell line U937 coated on ELISA plates; also called U937 plasma membranes; U937 membranes

TNF-alpha = target: T5, TNF-alpha (human, UniProt P01375 77-233); test: phage ELISA
T5 construct: also called TNFα; TNF-α

TNF-beta = target: T1, TNF-beta; test: phage ELISA
Fas ligand = target: T2, Fas ligand; test: phage ELISA
TRAIL = target: T6, TRAIL (human, UniProt P50591 114-281); test: phage ELISA
T6 construct: also called TNF-related apoptosis inducing ligand

[3] = target: T7, B Lymphocyte Stimulator, soluble form (human) (human, UniProt Q9Y275 134-285, biotinylated with NHS-biotin where used as biotinylated B Lymphocyte Stimulator); test: phage competition ELISA
T7 construct: Coated on plastic, captured on streptavidin plates, amine-coupled to a CM5 chip or free in solution, depending on the assay; also called BLyS; immobilized B Lymphocyte Stimulator

T5 sequence (P01375 77-233 limits assumed): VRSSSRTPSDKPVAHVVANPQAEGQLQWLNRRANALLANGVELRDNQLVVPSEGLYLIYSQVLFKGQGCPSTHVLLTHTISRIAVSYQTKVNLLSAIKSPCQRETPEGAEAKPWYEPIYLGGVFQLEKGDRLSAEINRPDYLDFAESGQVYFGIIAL
T6 sequence (P50591 114-281 limits assumed): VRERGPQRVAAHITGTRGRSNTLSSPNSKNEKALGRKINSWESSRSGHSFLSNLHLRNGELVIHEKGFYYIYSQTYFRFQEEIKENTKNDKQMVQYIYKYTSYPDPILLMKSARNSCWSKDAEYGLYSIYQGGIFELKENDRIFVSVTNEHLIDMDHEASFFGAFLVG

| Binder | binding result [1] | also measured |
| --- | --- | --- |
| I008C03 (scFv) scFv: QMQLVRSGGGVVQPGRSLRLSCAASGFTFSSYGMHWVRQAPGKGLEWVSVTYSGGNTNYADSVRGRFTISRDNSKNTLYLQMNSLRAEDTAVYYCAREGSYDILTGYYVGVGRMDVWGKGTLVTVSSGGGGSGGGGSGGGGSSELTQDPAVSVALGQTVRITCQGDSLRSYYTNWFQQKPGQAPLLVVYAKNKRPSGIPDRFSGSSSGNTASLTITGAQAEDEADYYCNSRDSSGNHVVFGGGTKLTVLG | binds | – |
| I061E07 (scFv) scFv: QVQLQQSGAEVKKTGASVKVSCKASGYIFADYYVHWVRQAAGQGLEWMGWINPNTGSTKYAQKFQDRVTMTRDTSIKTVYMELRRLRSDDTALYYCARATYDPLTGYSFDGFDIWGKGTMVTVSSGGGGSGGGGSGGGGSQSVLTQPPSASGTPGQRVTISCSGSSSNIGSNTVNWYQRLPGAAPQLLIYNNDQRPSGIPDRFSGSKSGTSGSLVISGLQSEDEADYYCASWDDSLNGRVFGGGTKLTVLG | binds | – |
| I022E02 (scFv) scFv: QVQLVQSGAEVKKPGASVMVSCKASGYTFSTYAVHWVRQAPGQGLEWMGRINAGNGYTKYSQKFQGRVTITKDTSASAAYMELSSLGSEDTALYYCARATYDPLTGYSFDGLDIWGKGTMVTVSSGGGGSGGGGSGGGGSQSVLTQPASVSGSPGQSITISCTGTSSDVGGYNYVSWYQQHPGKAPKLMIYEGSKRPSGVSNRFSGSKSGNTASLTISGLQAEDEADYYCSSYTTRSTRVFGGGTKLTVLG | binds | – |
| I006D07 (scFv) scFv: EVQLVESGGGVVQPGGSLRLSCAASGFTVNSYAMHWVRQAPGKGLQWVAVIPYDGSKKYYADSVKGRFTVSRDNSKNTLYLQMNSLRAEDTAVYYCARSHYDILTGLNYWYFDLWGRGTLVTVSSGGGGSGGGGSGGGGSSELTQDPAVSVALGQTVRITCQGDSLRSYYASWYQQKPGQAPVLVIYGKNNRPSGIPDRFSGSSSGNTASLTITGAQAEDEADYYCNSRGSSGNHVVFGGGTKLTVLG | binds | – |
| I028A06 (scFv) scFv: QVQLVESGGGLIQPGGSLRLSCAASGFSFGSYAMSWIRQAPGKGLEWVSTSTGRGGSTYYADSVKGRFTISRDNAKNSLYLQMNSLRAEDAAVYYCARGGDYDILTGLYYYGMDVWGKGTMVTVSSGGGGSGGGGSGGGGSSYVLTQPPSVSGTPGQRVTISCSGGRSNIGSNTVKWYQQLPGTAPKLLIYGNDQRPSGVPDRFSGSKSGTSASLAITGVQAEDEADYYCQSYDSSLRGSRVFGTGTKVTVLG | binds | – |
| I051C04 (scFv, also called 1051C04) scFv: QVQLQQSGAEVKKPGSSVKVSCRTSGGTFSNYGLSWVRQAPGQGLEWMGGVIPISSTIKYGQKFQDRLTIAADDLTNTTFMELSSLRPEDTAVYYCARAATTSQKHNKYAYYFYGMDVWGQGTMVTVSSGGGGSGGGGSGGGGSAQSALTQPASVSGSPGQSITISCTGTSSDVGGYNYVSWYQQHPGKAPKLMIYEVSNRPSGVSNRFSGSKSGNTASLTISGLQAEDEADYYCSSYTSSSTLVFGGGTKVTVLG | – | binding result [2]: binds; binding result (TNF-alpha): no binding; binding result (TNF-beta): no binding; binding result (Fas ligand): no binding; binding result (TRAIL): no binding; binding result [3]: binds |
| I018C02 (scFv) scFv: QVQLQQSGSELKKPGASVIVSCKVSGYSLTKMSMHWVRQSPGEGLEWVGGIDPETRQPVYAQKFQGRVTITKDTSASAAYMELSSLGSEDTALYYCARATYDPLTGYSFDGFDIWGQGTLVTVSSGGGGSGGGGSGGGGSQSVLTQPASVSGSPGQSITISCTGTSSDVGGYNYVSWYQQHPGKAPKLMIYEGSKRPSGVSNRFSGSKSGNTASLTISGLQAEDEADYYCSSYTTRSTRVFGGGTKLTVLG | binds | – |
| I007H08 (scFv) scFv: QVQLQQSGPGLVKPSQILSLTCAISGDSVASNGAAWNWIRQSPSRGLEWLGRTYYRSKWYVDYAVSVKSRITINPDTSKNQFSLQLNSVTPEDTAVYYCARDRYDILTGYYYYGMDVWGQGTMVTVSSGGGGSGGGGSGGGGSQSALTQPASVSGSRGQSITISCTGTTGDVGGYDYVSWYQQHPGKAPKLLIYGNSNRPSGVPDRFSASKSGNTASLTISGLQAEDEADYFCNTYAPPGIIMFGGGTKLTVLG | binds | – |

The next lines start with results.

| binding result [1] | Binder | also measured |
| --- | --- | --- |
| binds | I016F04 (scFv) scFv: QVQLQQSGSELKKPGASVKVSCKVSGYSLTKMSMHWVRQSPGEGLEWVGGIDPETRQPVYAQKFQGRVTITKDTSASAAYMELSSLGSEDTALYYCARATYDPLTGYSFDGFDIWGQGTLVTVSSGGGGSGGGGSGGGGSQSVLTQPASVSGSPGQSITISCTGTSSDVGGYNYVSWYQQHPGKAPKLMIYEGSKRPSGVSNRFSGSKSGNTASLTISGLQAEDEADYYCSSYTTRSTRVFGGGTKLTVLG | – |
| binds | I006D08 (scFv) scFv: QVQLQQSGAEVKKPGSSVRVSCKASGGTFNNNAINWVRQAPGQGLEWMGGIIPMFGTAKYSQNFQGRVAITADESTSTASMELSSLRSEDTAVYYCARSRDLLLFPHYGMDVWGRGTMVTVSSGGGGSGGGGSGGGGSAFSSELTQDPAVSVALGQTVRVTCQGDSLRSYYASWYQQKPGQAPVLVIYGKNNRPSGIPDRFSGSSSGNTASLTITGAQAEDEADYYCNSRDSSGNHWVFGGGTELTVLG | – |
| binds | I031F02 (scFv) scFv: QVQLVQSGAEVRKPGSSVKVSCKASGGSFSSHVFSWVRQAPGQGLEWVGGITPKFATPNYAQKFQHRVTITADELTRTVFMDLSGLRSEDTAVYYCARGYDSSAFRAFDIWGQGTMVTVSSGGGGSGGGGSGGGGSAQSVLTQPPSVSGAPGQRVTISCTGSSSNIGAGYDVQWYQQLPGTAPKLLIHGNNNRPSGVPDRFSGSKSGTSASLAITGLQDEDEADYYCQSYDSSLSFSGYVFGTGTKVTVLG | – |
| binds | I008C02 (scFv) scFv: AVQLQESGPGLVKPSETLSLTCSVSGASMTTNKFYWSWIRQPPGKGLEWIGNINYSKSTNYNPSLKSRITISVDTSKNQLSLKLNSVTAADTAVYYCARHVRDYDILTGYYRGHYFDYWGQGTMVTVSSGGGGSGGGGSGGGGSQSVLTQPASVSGSPGQSITISCTGTSSDVGGYNYVSWYQQHPGKAPKLMIYEGSKRPSGVSNRFSGSKSGNTASLTISGLQAEDEADYYCSSYTTRSTRVFGGGTKLTVLG | – |
| binds | I029D07 (scFv) scFv: QVQLQQSGAEVKKPGSSVKVSCKASGYTFTKYTMHWVRQAPGQGPEWMGWINGGSGDTKYSRKFQGRVTITKDTSASAAYMELSSLGSEDTALYYCARATYDPLTGYSFDGFDIWGQGTLVTVSSGGGGSGGGGSGGGGSQSVLTQPASVSGSPGQSITISCTGTSSDVGGYNYVSWYQQHPGKAPKLMIYDVSKRPSGVPDRFSGSKSGNTASLTISGLQAEDEGDYYCSSYAGPSRVFGGGTKVEIKR | – |
| binds | I061H01 (scFv, also called 1061H01) scFv: QVQLVQSGGGLVKPGGSLRLSCAASGFTFSNAWMSWVRQAPGKGLQWVGRIKSKTDGGTTDYAAPVKGRFTISRDDSKNTLYLQMNSLKTEDTAVYYCTTFNPTYDILTGYYIGGYFQHWGQGTMVTVSSGGGGSGGGGSGGGGSQSVLTQPASVSGSPGQSITISCTGTSSDVGGYNYVSWYQQHPGKAPKLMIYEGSKRPSGVSNRFSGSKSGNTASLTISGLQAEDEADYYCSSYTTRSTRVFGGGTQLTVLG | – |
| binds | I031C03 (scFv) scFv: QMQLVQSGAEVRKPGSSVKVSCKASGGSFSSHVFSWVRQAPGQGLEWVGGITPKFATPNYAQKFQHRVTITADELTRTVFMDLSGLRSEDTAVYYCARGYDSSAFRAFDIWGQGTLVTVSSGGGGSGGGGSGGGGSAQSVLTQPPSVSAAPGQKVTISCSGSSSNIGNNYVSWYQQFPGTAPKLLIYDNNNRPSGVPDRFSGSKSGTSATLGITGLQTGDEADYYCGTWDRSLSVVVFGGGTKVTVLG | – |
| binds | I008A11 (scFv) scFv: QVQLQQSGPGLVKPSQILSLTCAISGDSVASNGAAWNWIRQSPSRGLEWLGRTYYRSKWYVDYAVSVKSRITINPDTSKNQFSLQLNSVTPEDTAVYYCARDRYDILTGYYYYGMDVWGQGTMVTVSSGGGGSGGGGSGGGGSQSALTQPASVSGSRGQSITISCTGTTGDVGGYDYVSWYQQHPGKAPKLLIYGNSNRPSGVPDRFSASKSGNTASLTISGLQAEDEADYFCSTYAPPGIIMFGGGTKLTVLG | – |

Source: US20110293610A1 (published 2011)
